Results as given in article PMC9637814, “Aurora A–mediated pyruvate kinase M2 phosphorylation promotes biosynthesis with glycolytic metabolites and tumor cell cycle progression” (The Journal of Biological Chemistry, 2022).

How the values were obtained:
[1] = target: the molecule itself; experiment: cross-linking; Flag-PKM2 purified on Flag beads from H1299 extracts, DSS crosslinking (1.5 mM, room temperature, 30 min), immunoblot
[2] = target: T1, His-PKM2 (human, UniProt P14618 1-531); experiment: pull-down; GST-tagged protein on resin incubated with purified His-PKM2 for 2 h at 4 °C, eluted with 10 mM GSH in 50 mM Tris pH 8.0, immunoblot; settings: both partners purified
T1 construct: full-length PKM2 cloned into the EcoRI/BamHI sites of pET-22b; also called His-tagged PKM2; His-PKM2 WT; source: E. coli, purified (nickel column)
T1 sequence (P14618 whole entry): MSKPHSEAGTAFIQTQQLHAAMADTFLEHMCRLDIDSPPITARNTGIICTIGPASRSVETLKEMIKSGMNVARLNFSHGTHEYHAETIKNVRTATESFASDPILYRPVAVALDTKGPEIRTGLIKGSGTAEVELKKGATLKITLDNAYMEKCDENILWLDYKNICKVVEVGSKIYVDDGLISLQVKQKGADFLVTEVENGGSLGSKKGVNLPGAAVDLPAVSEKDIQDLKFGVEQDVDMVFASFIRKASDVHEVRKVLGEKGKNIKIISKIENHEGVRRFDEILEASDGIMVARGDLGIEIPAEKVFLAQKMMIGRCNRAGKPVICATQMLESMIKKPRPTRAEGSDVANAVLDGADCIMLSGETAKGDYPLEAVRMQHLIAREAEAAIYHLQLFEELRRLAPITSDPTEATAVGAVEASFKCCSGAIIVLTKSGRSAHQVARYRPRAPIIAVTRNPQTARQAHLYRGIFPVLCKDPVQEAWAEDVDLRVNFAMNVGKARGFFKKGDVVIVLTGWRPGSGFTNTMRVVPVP

[3] = target: the molecule itself; experiment: SEC-MALS; 1 mg/ml protein in 150 mM NaCl, 20 mM Tris pH 7.5; Superdex 200 Increase, 0.3 ml/min; tetramer and monomer

B1: shRNA-resistant Flag-PKM2 T45A (natural protein)
chain: not shown
notes: Flag-tagged human PKM2 T45A with two silent nucleotide substitutions in the shRNA-targeted region, in the pGIPZ system; Monomer and tetramer are both spoken of; 4 copies is the tetramer seen by cross-linking; also called PKM2 T45A mutant; source: H1299 with endogenous PKM2 knocked down, retroviral expression, purified on Flag beads
Which “stoichiometry N” value [1] does the source give for B1 here?
Its value is 4.

B2: GST-Aurora A (natural protein, human, UniProt O14965 1-403, looked up)
chain: MDRSKENCISGPVKATAPVGGPKRVLVTQQFPCQNPLPVNSGQAQRVLCPSNSSQRIPLQAQKLVSSHKPVQNQKQKQLQATSVPHPVSRPLNNTQKSKQPLPSAPENNPEEELASKQKNEESKKRQWALEDFEIGRPLGKGKFGNVYLAREKQSKFILALKVLFKAQLEKAGVEHQLRREVEIQSHLRHPNILRLYGYFHDATRVYLILEYAPLGTVYRELQKLSKFDEQRTATYITELANALSYCHSKRVIHRDIKPENLLLGSAGELKIADFGWSVHAPSSRRTTLCGTLDYLPPEMIEGRMHDEKVDLWSLGVLCYEFLVGKPPFEANTYQETYKRISRVEFTFPDFVTEGARDLISRLLKHNPSQRPMLREVLEHPWITANSSKPSNCQNKESASKQS
notes: full-length Aurora A cloned into the BamH/XhoI sites of p-GEX-5X-3
Does B2 bind [2]?
Result: binds

B3: His-PKM2 T45A mutant (natural protein)
chain: not shown
notes: Monomer and tetramer are both spoken of; source: E. coli, purified
With B3 as the binder, how does the “stoichiometry N” value [3] read?
Its value is 4.
